Reference: paper PMC6411343 (International Journal of Oncology, 2019)

B1: [^125I]I-G3-H6 (DARPin G3-H6, directly radioiodinated with iodine-125) (designed binder)
chain: MDLGKKLLEAARAGQDDEVRILMANGADVNAKDEYGLTPLYLATAHGHLEIVEVLLKNGADVNAVDAIGFTPLHLAAFIGHLEIAEVLLKHGADVNAQDKFGKTAFDISIGNGNEDLAEILQKLNGS
modifications: iodine-125 on tyrosines (direct chloramine-T radioiodination, random attachment; number and position not controlled)
B2: [^125I]I-HPEM-G3-GGGC (DARPin G3-GGGC, site-specifically labelled with [^125I]I-iodo-[(4-hydroxyphenyl)ethyl]maleimide) (designed binder)
chain: DLGKKLLEAARAGQDDEVRILMANGADVNAKDEYGLTPLYLATAHGHLEIVEVLLKNGADVNAVDAIGFTPLHLAAFIGHLEIAEVLLKHGADVNAQDKFGKTAFDISIGNGNEDLAEILQKLNGGGGC
modifications: [^125I]I-HPEM ([^125I]iodo-[(4-hydroxyphenyl)ethyl]maleimide) on the C-terminal cysteine (maleimide-cysteine coupling)
B3: [^125I]I-G3-GGGC-IAA (DARPin G3-GGGC, directly radioiodinated, terminal cysteine capped with iodoacetamide) (designed binder)
chain: B2 chain
modifications: iodine-125 by direct iodination; terminal cysteine capped by alkylation with iodoacetamide (IAA)

molecular target: human epidermal growth factor receptor 2 (HER2) (human (endogenous in SKOV3, BT474, …, UniProt P04626 23-1255)); assay: radioligand binding

| Binder | KD1 (high affinity interaction, 1:2 interaction model) [pM] | KD2 (low affinity interaction, 1:2 interaction model) [nM] |
| --- | --- | --- |
| B1 | 163 | 3.9 |
| B2 | 99 | 3.5 |
| B3 | 146 | 1.5 |
